The text below walks through data of PMC8834548, “Epiregulin as an Alternative Ligand for Leptin Receptor Alleviates Glucose Intolerance without Change in Obesity” (Cells, 2022).

The target of test [1] is mouse recombinant leptin receptor (LepR) protein (mouse) (UniProt P48356). Put plainly: quartz crystal microbalance with dissipation (QCM-D); LepR (1.6 pM in PBS) laid as a monolayer on a gold quartz sensor, then mouse leptin or mouse EREG (1.6 fM) added; PBS pH 7.1-7.5, 25 C, flow 50 uL/min; frequency, dissipation and modelled film thickness.
In test [2] the target is leptin receptor (LepR), endogenous in mouse adipose tissue (mouse (endogenous in Lep^ob adipose tissue)) (UniProt P48356).
Test [3] deals with T1, mouse recombinant leptin receptor (LepR) protein (mouse, UniProt P48356 22-839).
T1 construct: leptin receptor, mouse, recombinant, R&D systems 497-LR/CF; also called recombinant LepR; source: bought: R&D systems, 497-LR/CF
T1 sequence (looked up): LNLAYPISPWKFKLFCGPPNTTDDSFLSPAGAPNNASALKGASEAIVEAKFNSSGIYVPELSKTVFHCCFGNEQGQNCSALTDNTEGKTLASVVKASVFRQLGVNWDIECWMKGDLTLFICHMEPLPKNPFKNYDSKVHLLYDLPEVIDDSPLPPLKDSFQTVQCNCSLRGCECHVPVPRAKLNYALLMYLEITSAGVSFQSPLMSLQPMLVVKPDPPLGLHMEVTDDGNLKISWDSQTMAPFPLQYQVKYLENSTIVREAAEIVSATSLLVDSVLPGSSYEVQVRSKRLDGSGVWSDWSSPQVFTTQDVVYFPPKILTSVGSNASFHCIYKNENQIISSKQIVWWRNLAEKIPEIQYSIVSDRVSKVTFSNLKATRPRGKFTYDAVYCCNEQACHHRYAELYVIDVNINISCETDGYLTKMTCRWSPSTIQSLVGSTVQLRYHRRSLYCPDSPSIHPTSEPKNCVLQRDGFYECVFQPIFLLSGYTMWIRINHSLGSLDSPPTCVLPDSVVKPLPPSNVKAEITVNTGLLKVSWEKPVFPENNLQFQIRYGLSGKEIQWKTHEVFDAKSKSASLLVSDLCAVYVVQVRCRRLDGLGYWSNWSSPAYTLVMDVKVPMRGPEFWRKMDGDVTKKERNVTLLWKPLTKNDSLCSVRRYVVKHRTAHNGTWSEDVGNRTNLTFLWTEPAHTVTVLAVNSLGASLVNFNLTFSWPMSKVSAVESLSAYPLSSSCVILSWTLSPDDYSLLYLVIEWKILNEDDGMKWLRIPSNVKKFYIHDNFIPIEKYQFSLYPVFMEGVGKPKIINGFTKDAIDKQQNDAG
Put plainly: quartz crystal microbalance with dissipation (QCM-D); LepR (1.6 pM in PBS) laid as a monolayer on a gold quartz sensor, then mouse leptin or mouse EREG (1.6 fM) added; PBS pH 7.1-7.5, 25 C, flow 50 uL/min; frequency, dissipation and modelled film thickness. As to conditions: both partners purified.

Regarding mouse recombinant EREG (ligand), the thickness of the LepR film after EREG was added (23 nm before) in test [1] was 20 nm. The molecule further showed an FD-glucose uptake in 3T3-L1 preadipocytes against the concentration of mouse EREG in test [2] of 26 nM.

B1: mouse leptin (ligand, UniProt P41160 22-167, looked up)
chain: VPIQKVQDDTKTLIKTIVTRINDISHTQSVSAKQRVTGLDFIPGLHPILSLSKMDQTLAVYQQVLTSLPSQNVLQIANDLENLRDLLHLLAFSKSCSLPQTSGLQKPESLDGVLEASLYSTEVVALSRLQGSLQDILQQLDVSPEC
notes: leptin, mouse, Crystal Chem 90030-B; source: bought: Crystal Chem, 90030-B
B1: in test [3], the binding result is “binds”.
